Measurements reported in the Human Domainome abundance scans (Beltran et al. 2025).
± gives the uncertainty stated by the source.

B1: Ventral anterior homeobox 1, residues 102 to 157; numbered along this chain, Q5SQQ9 (parent)
chain: RTRTSFTAEQLYRLEMEFQRCQYVVGRERTELARQLNLSETQVKVWFQNRRTKQKK

Variants of: B1
Assay: abundance fitness (aPCA) (normalised: wild type 0, dead -1); higher = more abundant; growth selection in yeast, the domain comes from the species named
Settings: Homo sapiens

Row | Variant | abundance fitness
1 | E9P | -0.669 ± 0.22
2 | E9L | -0.439 ± 0.11
3 | E9V | -0.157 ± 0.11
4 | E9D | -0.135 ± 0.18
5 | E9F | 0.005 ± 0.16
6 | E9S | -0.408 ± 0.14
7 | E9K | -0.453 ± 0.29
8 | E9T | -0.464 ± 0.19
9 | T2L | -0.406 ± 0.22
10 | T2F | -0.3 ± 0.24
11 | T2D | -0.034 ± 0.19
12 | T2C | -1.01 ± 0.4
13 | T2N | 0.271 ± 0.35
14 | T2P | -0.098 ± 0.24
15 | T2G | 0.013 ± 0.14
16 | M16N | -0.407 ± 0.26
17 | M16P | -1.12 ± 0.37
18 | M16F | -0.285 ± 0.31
19 | T30W | -0.117 ± 0.32
20 | T30L | -0.427 ± 0.15
21 | T30P | -0.677 ± 0.3
22 | T41V | -0.104 ± 0.1
23 | T41P | -0.152 ± 0.16
24 | T41K | -0.381 ± 0.18
25 | T41A | 0.032 ± 0.12

Row | Variant | abundance fitness
26 | T41C | 0.164 ± 0.17
27 | T41S | 0.006 ± 0.12
28 | T41M | 0.095 ± 0.16
29 | T41Q | 0.227 ± 0.19
30 | V24E | -0.367 ± 0.22
31 | V24H | -0.307 ± 0.24
32 | V24S | -0.09 ± 0.14
33 | V24P | -0.167 ± 0.21
34 | V24F | -0.408 ± 0.32
35 | Q54G | 0.005 ± 0.076
36 | Q54F | -0.284 ± 0.18
37 | Q54Y | -0.317 ± 0.39
38 | Q54E | 0.11 ± 0.12
39 | Q54L | -0.045 ± 0.088
40 | Q54P | 0.013 ± 0.12
41 | Q54S | -0.125 ± 0.1
42 | L14M | -0.368 ± 0.24
43 | W46R | -0.844 ± 0.14
44 | W46C | -0.909 ± 0.32
45 | L32K | -0.641 ± 0.42
46 | L32Q | -0.959 ± 0.34
47 | L32C | -0.777 ± 0.39
48 | K55S | -0.072 ± 0.12
49 | K55P | 0.061 ± 0.13
50 | K55G | 0.043 ± 0.093

Row | Variant | abundance fitness
51 | K55H | -0.149 ± 0.26
52 | K55I | -0.238 ± 0.2
53 | N37K | -0.092 ± 0.22
54 | N37T | -0.254 ± 0.39
55 | N37M | -0.536 ± 0.4
56 | N37W | -0.605 ± 0.2
57 | R51A | -0.325 ± 0.12
58 | R51Q | 0.049 ± 0.24
59 | R51H | -0.038 ± 0.18
60 | E28R | -0.596 ± 0.13
61 | E28Q | -0.394 ± 0.19
62 | E28P | -0.171 ± 0.22
63 | E28A | -0.318 ± 0.12
64 | E28D | -0.077 ± 0.24
65 | E28K | -0.78 ± 0.28
66 | E28G | -0.39 ± 0.1
67 | E28L | -0.369 ± 0.12
68 | L36H | -0.569 ± 0.22
69 | L36P | -0.711 ± 0.22
70 | L36R | -0.881 ± 0.13
71 | L36N | -0.935 ± 0.43
72 | L36C | -0.165 ± 0.16
73 | L36Y | -0.858 ± 0.23
74 | L36D | -0.643 ± 0.3
75 | L36Q | -0.545 ± 0.18

Row | Variant | abundance fitness
76 | L36G | -0.916 ± 0.12
77 | K44M | -0.079 ± 0.14
78 | K44S | 0.106 ± 0.13
79 | K44W | -0.167 ± 0.12
80 | K44R | -0.22 ± 0.086
81 | K44A | 0.038 ± 0.12
82 | Q42Y | 0.053 ± 0.5
83 | Q42V | -0.153 ± 0.12
84 | Q42I | 0.007 ± 0.2
85 | Q42S | -0.364 ± 0.22
86 | Q42A | 0.021 ± 0.12
87 | Q42M | -0.252 ± 0.19
88 | Q42R | -0.223 ± 0.11
89 | Y12V | -0.085 ± 0.096
90 | Y12S | 0.069 ± 0.11
91 | Y12M | 0.102 ± 0.15
92 | Y12A | 0.044 ± 0.099
93 | Y12I | -0.188 ± 0.3
94 | Q22L | -0.437 ± 0.13
95 | Q22A | -0.033 ± 0.12
96 | Q22G | 0.033 ± 0.1
97 | Q22K | -0.103 ± 0.21
98 | Q22H | -0.251 ± 0.24
99 | T7D | -0.043 ± 0.18
100 | T7N | -0.105 ± 0.27

Row | Variant | abundance fitness
101 | T7L | -0.704 ± 0.15
102 | T7S | -0.158 ± 0.14
103 | T7H | -0.407 ± 0.28
104 | T7Y | -0.652 ± 0.34
105 | T7G | -0.311 ± 0.09
106 | T7E | -0.279 ± 0.13
107 | R3C | 0.211 ± 0.11
108 | R3S | 0.266 ± 0.084
109 | R3I | 0.251 ± 0.092
110 | R3A | 0.002 ± 0.11
111 | A8H | -0.817 ± 0.39
112 | A8P | -0.049 ± 0.19
113 | A8N | 0.059 ± 0.29
114 | A8R | -0.332 ± 0.11
115 | A8I | -0.363 ± 0.4
116 | A8C | -0.212 ± 0.17
117 | A8Q | -0.301 ± 0.2
118 | A8M | -0.104 ± 0.21
119 | A8V | -0.154 ± 0.11
120 | Y23E | 0.012 ± 0.35
121 | Y23W | -0.527 ± 0.35
122 | Y23N | 0.069 ± 0.46
123 | S5Y | -0.013 ± 0.22
124 | S5M | 0.08 ± 0.15
125 | S5H | -0.224 ± 0.28

Row | Variant | abundance fitness
126 | S5R | -0.597 ± 0.12
127 | S5K | -0.747 ± 0.2
128 | F18W | -0.181 ± 0.14
129 | F18L | -0.927 ± 0.17
130 | F18M | -0.674 ± 0.21
131 | F47V | -0.787 ± 0.17
132 | F47M | -0.228 ± 0.17
133 | F47K | -0.885 ± 0.39
134 | F47E | -1.04 ± 0.3
135 | F47H | -0.754 ± 0.35
136 | F47I | -0.663 ± 0.29
137 | Q19H | -0.274 ± 0.24
138 | Q19V | -0.153 ± 0.11
139 | Q19G | -0.133 ± 0.11
140 | Q19L | -0.044 ± 0.12
141 | Q19P | -0.732 ± 0.24
142 | N49C | -0.283 ± 0.25
143 | N49G | -0.047 ± 0.1
144 | N49M | -0.442 ± 0.2
145 | N49H | -0.358 ± 0.27
